Here are results for 18 molecules from US20220041738A1 (SAITAMA MEDICAL UNIVERSITY, published 2022).

Substitutions are numbered along the chain they refer to.

The chains are these.
T1: human ALK2 extracellular domain with C-terminal His tag (E. coli) (human, UniProt Q04771 21-123)
T1 construct: Expressed in E. coli SHuffle T7, purified to a single band of 12 kDa; also called ALK2-ECD; human ALK2-ECD; not shown: C-terminal His tag from pET-28b(+)
T1 sequence: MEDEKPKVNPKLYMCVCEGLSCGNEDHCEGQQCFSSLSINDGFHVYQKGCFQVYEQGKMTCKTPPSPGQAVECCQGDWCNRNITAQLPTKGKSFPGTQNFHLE

T2: Recombinant Human ALK2 Fc Chimera (Sino Biological Inc.) (human, UniProt Q04771 21-123)
T2 construct: Bought product; not shown: Fc of the bought chimera
T2 sequence: T1 sequence

B1: humanized hA2-25C-H3/L2 (antibody, human IgG1, kappa, V domains shown)
VH: EVQLVESGGGLVQPGGSLRLSCAASGFTFSYYAMSWVRQAPGKGLEWVASISRGGDNTYYRDSVKGRFTTSRDNSKNTLYLQMNSLRAEDTAVYYCARLNYNNYFDYWGQGTLVTVSS
VL: DIQMTQSPSSLSASVGDRVTITCQASQDIGNWLSWYQQKPGKAPKLLIYGATSLADGVPSRFSGSRSGTDYTLTISSLQPEDFATYYCLQAYSAPFTFGQGTKVEIKR
notes: Human IgG1, kappa; used as culture supernatant of FreeStyle 293F cells
B2: humanized hA2-25C-H3/L1 (antibody, human IgG1, kappa, V domains shown)
VH: B1 VH
VL: B1 VL with R66G, Y71F
notes: as for B1
B3: humanized hA2-25C-H4/L1 (antibody, human IgG1, kappa, V domains shown)
VH: B1 VH with V93T, T112V
VL: B1 VL with R66G, Y71F
notes: as for B1
B4: humanized hA2-25C-H4/L2 (antibody, human IgG1, kappa, V domains shown)
VH: B1 VH with V93T, T112V
VL: B1 VL
notes: as for B1
B5: humanized hA2-25C-H3/L3 (antibody, human IgG1, kappa, V domains shown)
VH: B1 VH
VL: B1 VL with A43S, D70Q, Q100S
notes: as for B1
B6: humanized hA2-25C-H4/L3 (antibody, human IgG1, kappa, V domains shown)
VH: B1 VH with V93T, T112V
VL: B1 VL with A43S, D70Q, Q100S
notes: as for B1
B7: humanized hA2-11E-H3/L3 (antibody, human IgG1, kappa, V domains shown)
VH: EVQLVESGGGLVQPGGSLRLSCAASGFTFSNYYMYWIRQAPGKGLEWVSSINTDGGSTYYADSVKGRFTISRDNSKNTVYLQMNSLRAEDTAVYYCAKSTPNIPLAYWGQGTLVTVSS
VL: DIQMTQSPSSLSASVGDRVTITCKASQNIYKYLNWFQQKPGKAPKLLIYYSNSLQTGIPSRFSGSGSGTDFTLTISSLQPEDFATYYCFQYSSGPTFGQGTKVEIKR
notes: as for B1
B8: humanized hA2-11E-H4/L3 (antibody, human IgG1, kappa, V domains shown)
VH: B7 VH with V48I, A61P
VL: B7 VL
notes: as for B1
B9: humanized hA2-11E-H4/L2 (antibody, human IgG1, kappa, V domains shown)
VH: B7 VH with V48I, A61P
VL: B7 VL with I58V
notes: as for B1
B10: humanized hA2-11E-H3/L4 (antibody, human IgG1, kappa, V domains shown)
VH: B7 VH
VL: B7 VL with T22S, K42E, T85I, Y87F, Q99P
notes: as for B1
B11: humanized hA2-11E-H3/L2 (antibody, human IgG1, kappa, V domains shown)
VH: B7 VH
VL: B7 VL with I58V
notes: as for B1
B12: humanized hA2-11E-H4/L4 (antibody, human IgG1, kappa, V domains shown)
VH: B7 VH with V48I, A61P
VL: B7 VL with T22S, K42E, T85I, Y87F, Q99P
notes: as for B1
B13: humanized hA2-27D-H2/L2 (antibody, human IgG1)
heavy: not shown
light: EIVLTQSPGTLSLSPGERATLSCLASSSVSYMTWYQQKPGQSPRLWIYGTSNLASGVPDRFSGSGSGTDFTLTISRLEPEDFAVYYCLHLTSYPPYTFGQGTKVEIKRAVAAPSVFIFPPSDEQLKSGTASVVCLLNNFYPREAKVQWKVDNALQSGNSQESVTEQDSKDSTYSLSSTLTLSKADYEKHKVYACEVTHQGLSSPVTKSFNRGEC
notes: Human IgG1, kappa; also called humanized A2-27D antibody (IgG1)
B14: humanized hA2-27D-H3/L4 (antibody, human IgG1)
heavy: not shown
light: B13 light with L11M, L13A, A19V, Q41A, F70Y, L77M, V84T, Q100A, V104L, I106L
notes: as for B13
B15: humanized hA2-15A-H4/L6 (antibody, human IgG1)
heavy: not shown
light: DIVLTQSPDSLAVSLGERATINCRANQGVSLSRYNLMHWYQQKPGQKPKLLIYRSSNLAQGIPARFSGSGSGTDFTLTISSVQADDIAVYYCQQSRESPFTFGQGTKLELKRAVAAPSVFIFPPSDEQLKSGTASVVCLLNNFYPREAKVQWKVDNALQSGNSQESVTEQDSKDSTYSLSSTLTLSKADYEKHKVYACEVTHQGLSSPVTKSFNRGEC
notes: Human IgG1, kappa; also called humanized A2-15A antibody (IgG1)
B16: humanized hA2-27D-H2/L2 (IgG1 LALA) (antibody)
heavy: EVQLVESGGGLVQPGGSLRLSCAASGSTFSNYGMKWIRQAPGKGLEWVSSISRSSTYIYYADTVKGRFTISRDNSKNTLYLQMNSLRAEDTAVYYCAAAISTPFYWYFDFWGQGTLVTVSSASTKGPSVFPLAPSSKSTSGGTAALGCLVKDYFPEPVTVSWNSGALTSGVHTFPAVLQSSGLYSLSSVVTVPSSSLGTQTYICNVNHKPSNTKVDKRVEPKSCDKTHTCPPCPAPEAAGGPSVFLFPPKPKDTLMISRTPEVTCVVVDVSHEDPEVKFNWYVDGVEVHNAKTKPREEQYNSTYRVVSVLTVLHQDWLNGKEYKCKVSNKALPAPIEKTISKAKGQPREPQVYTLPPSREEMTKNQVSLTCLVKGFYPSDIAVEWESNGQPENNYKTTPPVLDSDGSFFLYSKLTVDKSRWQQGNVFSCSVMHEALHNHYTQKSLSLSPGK
light: B13 light
notes: also called humanized A2-27D-H2/L2 (IgG1 LALA); humanized A2-27D antibody (LALA)
B17: humanized hA2-27D-H3/L4 (IgG1 LALA) (antibody)
heavy: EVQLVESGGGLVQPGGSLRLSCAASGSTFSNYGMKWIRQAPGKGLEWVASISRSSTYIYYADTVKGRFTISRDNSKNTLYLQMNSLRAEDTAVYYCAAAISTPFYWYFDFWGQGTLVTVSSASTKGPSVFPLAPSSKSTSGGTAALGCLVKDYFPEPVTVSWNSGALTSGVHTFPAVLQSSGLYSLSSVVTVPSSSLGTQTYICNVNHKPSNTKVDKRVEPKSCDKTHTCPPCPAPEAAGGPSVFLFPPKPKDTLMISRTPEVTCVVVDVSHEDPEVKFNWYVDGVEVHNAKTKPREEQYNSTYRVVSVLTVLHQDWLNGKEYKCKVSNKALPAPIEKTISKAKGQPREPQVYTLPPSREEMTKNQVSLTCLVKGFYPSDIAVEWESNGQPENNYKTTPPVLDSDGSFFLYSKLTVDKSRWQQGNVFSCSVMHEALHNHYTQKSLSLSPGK
light: B13 light with L11M, L13A, A19V, Q41A, F70Y, L77M, V84T, Q100A, V104L, I106L
B18: humanized hA2-15A-H4/L6 (IgG2) (antibody)
heavy: EVQLVESGGGLVQPGGSLRLSCAASGFTFSHYYMAWVRQAPGKGLEWVASITNSGGSINYRDSVKGRFTISRDNAKSTLYLQMNSLRAEDTATYYCTREGGENYGGYPPFAYWGQGTLVTVSSASTKGPSVFPLAPCSRSTSESTAALGCLVKDYFPEPVTVSWNSGALTSGVHTFPAVLQSSGLYSLSSVVTVPSSNFGTQTYTCNVDHKPSNTKVDKTVERKCCVECPPCPAPPVAGPSVFLFPPKPKDTLMISRTPEVTCVVVDVSHEDPEVQFNWYVDGVEVHNAKTKPREEQFNSTFRVVSVLTVVHQDWLNGKEYKCKVSNKGLPAPIEKTISKTKGQPREPQVYTLPPSREEMTKNQVSLTCLVKGFYPSDIAVEWESNGQPENNYKTTPPMLDSDGSFFLYSKLTVDKSRWQQGNVFSCSVMHEALHNHYTQKSLSLSPGK
light: B15 light
notes: Human IgG2, kappa; also called humanized A2-15A-H4/L6 (IgG2); humanized A2-15A antibody (IgG2)

The target in the first assay is T1, human ALK2 extracellular domain with …. The experiment in a line: SPR, Biacore T200; antibody captured from culture supernatant by anti-human IgG (Fc), antigen as analyte; 1:1 binding model. How it is done:
The dissociation constants of the humanized A2-11E antibodies (IgG1) and the humanized A2-25C antibodies (IgG1) prepared in Example 18)-5 for the antigen (human ALK2 extracellular domain prepared in Example 14)-1) were measured using Biacore T200 (GE Healthcare Bio-Sciences Corp.) by the capture method which involves capturing each antibody as a ligand onto an immobilized anti-human IgG (Fc) antibody and assaying the antigen as an analyte. Approximately 1000 RU of the anti-human IgG (Fc) antibody (Human Antibody Capture kit, GE Healthcare Bio-Sciences Corp.) was covalently bound to a sensor chip CM5 (GE Healthcare Bio-Sciences Corp.) by the amine coupling method. Similarly, this antibody was immobilized onto a reference cell. The running buffer used was HBS-EP+(10 mM HEPES (pH 7.4), 0.15 M NaCl, 3 mM EDTA, and 0.05% Surfactant P20). The culture supernatant containing the antibody was added onto the anti-human IgG (Fc) antibody-immobilized chip for approximately 1 minute. Then, serially diluted solutions (0.78 to 200 nM) of the antigen were added thereto at a flow rate of 30 μl/min for 300 seconds. Subsequently, the dissociation phase was monitored for 600 seconds. 3 M MgCl₂ was added thereto as a regenerating solution at a flow rate of 10 μl/min for 30 seconds. The data was analyzed using 1:1 binding models of analytical software (BIAevaluation software, version 1.0) to calculate an association rate constant ka, a dissociation rate constant kd, and a dissociation constant (KD; KD=kd/ka).
B1 came in with a Kd of 53.3 nM.
As for B2, the Kd worked out at 116 nM.
Same read-out and setting: the result for B3 reads 81.8 nM; that for B4, 56.7 nM.
Take B5: the Kd is 64.4 nM.
Still for that read-out and setting: the result for B6 reads 27.9 nM; that for B7, 47.4 nM; that for B8, 18.5 nM.
Same read-out and setting: then B9, with 19.9 nM.
The same measure, in the same setting: the result for B10 reads 31.3 nM; that for B11, 63.1 nM.
As to B12, the Kd was 11.1 nM.

The next assay has as its target T2, Recombinant Human ALK2 Fc Chimera (Sino …). The experiment in a line: SPR, Biacore T200; antigen immobilised on CM5 chip, antibody as analyte; bivalent binding model. The protocol: The dissociation constants of humanized hA2-15A-H4/L6, humanized hA2-27D-H2/L2, and humanized hA2-27D-H3/L4 prepared in Example 8)-5 for the antigen (Recombinant Human ALK2 Fc Chimera, Sino Biological Inc.) were measured in Biacore T200 (GE Healthcare Bio-Sciences Corp.) by using the antigen immobilized as a ligand and each antibody as an analyte. The antigen was added at 1.25 μg/mL for 60 seconds and immobilized onto a sensor chip CM5 (GE Healthcare Bio-Sciences Corp.). The running buffer used was HBS-EP+(10 mM HEPES (pH 7.4), 0.15 M NaCl, 3 mM EDTA, and 0.05% Surfactant P20). Serially diluted solutions (0.2 to 50 nM) of the antibody were added onto the antigen-immobilized chip at a flow rate of 30 μl/min for 300 seconds. Subsequently, the dissociation phase was monitored for 1800 seconds. A 10 mM glycine/hydrochloric acid solution (pH 1.5) was added thereto as a regenerating solution at a flow rate of 10 μl/min for 30 seconds twice. The data was analyzed using bivalent binding models of analytical software (BIAevaluation software, version 1.0) to calculate an association rate constant ka, a dissociation rate constant kd, and a dissociation constant (KD; KD=kd/ka).
Take B13: the Kd was determined as 5.7 nM.
Turning to B14, the Kd came out at 4.3 nM.
Regarding B15, the Kd was 4.3 nM.

The next assay deals with T1, human ALK2 extracellular domain with …. The experiment in a line: SPR, Biacore T200; antibody captured by anti-human IgG (Fc), antigen as analyte; 1:1 binding model. The protocol:
The dissociation constants of humanized hA2-15A-H4/L6 (IgG2) prepared in Example 11)-4, and humanized hA2-27D-H2/L2 (IgG1 LALA) and humanized hA2-27D-H3/L4 (IgG1 LALA) prepared in Example 12)-4 for the antigen (human ALK2 extracellular domain prepared in Example 14)-1) were measured using Biacore T200 (GE Healthcare Bio-Sciences Corp., Japan) by the capture method which involves capturing each antibody as a ligand onto an immobilized anti-human IgG (Fc) antibody and assaying the antigen as an analyte. Approximately 1000 RU of the anti-human IgG (Fc) antibody (Human Antibody Capture kit, GE Healthcare Bio-Sciences Corp.) was covalently bound to a sensor chip CM5 (GE Healthcare Bio-Sciences Corp.) by the amine coupling method. Similarly, this antibody was immobilized onto a reference cell. The running buffer used was HBS-EP+(10 mM HEPES (pH 7.4), 0.15 M NaCl, 3 mM EDTA, and 0.05% Surfactant P20). The antibody was added onto the anti-human IgG (Fc) antibody-immobilized chip for approximately 1 minute. Then, serially diluted solutions (0.78 to 200 nM) of the antigen were added thereto at a flow rate of 30 μl/min for 300 seconds. Subsequently, the dissociation phase was monitored for 600 seconds. A 3 M magnesium chloride solution was added thereto as a regenerating solution at a flow rate of 10 μl/min for 30 seconds. The data was analyzed using 1:1 binding models of analytical software (BIAevaluation software, version 1.0) to calculate an association rate constant ka, a dissociation rate constant kd, and a dissociation constant (KD; KD=kd/ka).
On the technique in general: Surface plasmon resonance follows binding to a sensor surface in real time, without labels.
The molecule B16 came in with a Kd of 13.6 nM.
On the same count and under the same terms, the result for B17 reads 13.3 nM; that for B18, 17.4 nM.
